Laboratory results: article PMC5244374

Biological target: homotarsinin (Htr), cystine-linked homodimer (Phyllomedusa tarsius)
Assay: SEC; 2 mg/mL peptide, Superdex Peptide 10/300 GL, 20 mM phosphate pH 7.0, 0.3 M NaCl, room temperature, 0.3 mL/min; homotarsinin and distinctin compared by retention time

Substance: homotarsinin (Htr), cystine-linked homodimer (peptide)
- stoichiometry N: 2
